# Target: endogenous knock-in V5-Halo-RXRα (human (endogenous in U2OS)) (UniProt P19793)
# UniProt P19793, sequence (P19793 whole entry): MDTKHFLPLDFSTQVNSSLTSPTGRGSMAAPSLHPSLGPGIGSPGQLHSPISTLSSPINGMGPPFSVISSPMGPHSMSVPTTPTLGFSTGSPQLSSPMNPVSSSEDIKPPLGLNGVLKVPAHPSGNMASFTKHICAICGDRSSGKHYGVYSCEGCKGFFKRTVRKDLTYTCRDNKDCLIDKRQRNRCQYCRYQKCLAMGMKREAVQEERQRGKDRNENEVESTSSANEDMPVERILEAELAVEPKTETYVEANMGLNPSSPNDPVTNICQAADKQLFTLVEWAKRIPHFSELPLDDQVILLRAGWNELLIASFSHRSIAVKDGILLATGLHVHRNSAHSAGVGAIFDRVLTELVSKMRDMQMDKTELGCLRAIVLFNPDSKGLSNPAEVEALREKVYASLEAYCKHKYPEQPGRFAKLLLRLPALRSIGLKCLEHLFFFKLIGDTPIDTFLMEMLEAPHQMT
substance,measurement,value
RARα^RR-SNAPf-3xFLAG (from UniProt P10276 1-462) (natural protein),"chromatin-bound fraction of DR trajectories (f bound,DR) of RARα^RR-SNAP in Halo-RXRα knock-in U2OS cells",7.5%
same,"chromatin-bound fraction of PAPA trajectories (f bound,PAPA) of RARα^RR-SNAP in Halo-RXRα knock-in U2OS cells",11.1%

# Reference: PMC11723585
